Results taken from patent publication US20230250158A1 (TALEM THERAPEUTICS, published 2023).
Where two headings read alike, the source gives them in different places.

Columns and labels:
[1] = target: T1, SARS-CoV-2 Spike RBD (tagless) (SARS-CoV-2, UniProt P0DTC2 319-541)
V367F = assay: ELISA, heat map
G476S = assay: ELISA, heat map
N354D = assay: ELISA, heat map
K458R = assay: ELISA, heat map
A435S = assay: ELISA, heat map
W436R = assay: ELISA, heat map
Y453F = assay: ELISA, heat map
N439K = assay: ELISA, heat map
V483A = assay: ELISA, heat map
N501Y = assay: ELISA, heat map
E484K = assay: ELISA, heat map
K417N = assay: ELISA, heat map
B.1.351 (S1) = assay: ELISA, heat map
[2] = target: SARS-CoV-2 Spike trimer (recombinant, wild type) (SARS-CoV-2, UniProt P0DTC2 14-1213); assay: ELISA on plate-adsorbed recombinant Spike
[3] = target: T1, SARS-CoV-2 Spike RBD (tagless); assay: Octet BLI; tagless RBD as analyte over 23-H7-coated AHC sensors; 1:1 kinetic fit
F342L = assay: ELISA, heat map

B1: 23-H7 (antibody, V domains shown)
VH: QVQLVQSGAEVKLPGASMKVSCKASGYTFSTYYMHWVRQAPGQGPEWMGVIDPSGGTTSYAQKFHDRIAMTRDTSTSTAYLELSSLRSEDMAVYYCARGGFADAVDYWGQGTLVTVSS
VL: NFMLTQPHSVSGSPGKTVTISCTRNSGSIAGNYVQWYQQRPGSAPTTVIYEDNQRPSGVPDRFSGSIDSSSNSASLTISGLKTEDEADYYCQSYDASHLHVIFGGGTKVTVL
notes: also called bin 2
[1]
  Kd: 4 nM
V367F
  binding result: binds
G476S
  binding result: binds
N354D
  binding result: binds
K458R
  binding result: binds
A435S
  binding result: binds
W436R
  binding result: binds
Y453F
  binding result: binds
N439K
  binding result: binds
V483A
  binding result: binds
N501Y
  binding result: binds
E484K
  binding result: binds
K417N
  binding result: binds
B.1.351 (S1)
  binding result: binds
[2]
  EC50 (read off the curve): ~2 ng/mL
[3]
  Kd: 4 nM

B2: 23-H7 Fab (Fab, V domains shown)
VH: QVQLVQSGAEVKLPGASMKVSCKASGYTFSTYYMHWVRQAPGQGPEWMGVIDPSGGTTSYAQKFHDRIAMTRDTSTSTAYLELSSLRSEDMAVYYCARGGFADAVDYWGQGTLVTVSS
VL: NFMLTQPHSVSGSPGKTVTISCTRNSGSIAGNYVQWYQQRPGSAPTTVIYEDNQRPSGVPDRFSGSIDSSSNSASLTISGLKTEDEADYYCQSYDASHLHVIFGGGTKVTVL
[1]
  Kd: 4.6 nM

B3: 22-F7 (antibody, V domains shown)
VH: QVQLVESGGGVVQPGRSLRLSCAASGFSFTNYGMHWVRQAPGKGLEWVAVISYDGSIKYYEDSLKGRFTVSRDNSKKTLYLQMNSLRAEDTAVYYCTRERGTGIDYWGLGTLVTVSS
VL: QSALTQPASVSGYPGQSITLSCTGTKSDIGAYNYVSWYQQHPGKAPKLMVYDVSNRPSGLSNRFSGSKSDNTASLTISGLQAEDEAHYYCSSYTTSGTVVFGGGTKVTVL
notes: also called bin C
B.1.351 (S1)
  binding result: binds

B4: 22-D9 (antibody, V domains shown)
VH: QVQLVQSGAEVKKPGSSVNVSCKTSGGTFNTYSINWVRQAPGQGLEWMGEIIPIFDKPNYAQKFQGRVTITADESTSTAYMELTSLRSDDTAVYYCARGTGYYYGMDVWGQGTTVTVSS
VL: QSVLTQPPSVSGAPRQTVTISCFGSRSNIGNYPVNWYHQVPGKAPKVVVYYDDLLPSGISDRFSGYKSGTSASLTISGLRSEDEADYYCATWDDSLNVWVFGGGTKLTVL
notes: also called bin 4
V367F
  binding result: binds
G476S
  binding result: binds
N354D
  binding result: binds
K458R
  binding result: binds
A435S
  binding result: binds
W436R
  binding result: binds
F342L
  binding result: binds
Y453F
  binding result: binds
N439K
  binding result: binds
V483A
  binding result: binds
N501Y
  binding result: binds
E484K
  binding result: binds
K417N
  binding result: binds
B.1.351 (S1)
  binding result: no binding
[2]
  EC50 (read off the curve): ~10 ng/mL

B5: 22-E7 (antibody, V domains shown)
VH: QVQLVESGGGVVQPGTSLRLSCAASGFTFNNYPMFWVRQAPGKGLEWLALISYDGNHKVYADSVKGRFTISRDNAKNTLYLQMHSLRAEDTALYYCASDLSGAEDSWGQGTLVTVSS
VL: QSALTQPASVSGSPGQSITISCTGTSSDVGGYNYVSWYQQHPGKAPKLLIYEVSNRPSGVSNRFSGSKSGNTASLTISGLQAEDEADYYCSSYTSSSTWVFGGGTKLTVL
notes: also called bin C
B.1.351 (S1)
  binding result: binds

B6: 2-A6 (antibody, V domains shown)
VH: QVTLRESGPALVKPTQTLTLTCTFSGFSLNTRGMSVSWIRQPPGKALEWLALIDWEDDKFYRTSLMTRLTISKDIFKNQVVLTMTNVDPVDTGTYYCARTYSVGVKYFGMDVWGQGTTVTVSS
VL: SSELTQDPAVSVALGQTVRITCQGDSLRNYYASWYRQEPGQAPILLIYGGNYRPSGIPDRFSGSSSGNTASLTITGAQAEDEADYYCNSRDSSGNHVVFGGGTKLTVL
notes: also called bin S2
B.1.351 (S1)
  binding result: no binding
